From paper PMC10849882 (The Journal of Cell Biology, 2024) come the findings set out here.

The data set deals with the molecule itself. Briefly: negative stain EM.

B1: IMPDH1(514)-WT (enzyme)
chain: not shown
Take B1: the binding result was “binds”.

B2: IMPDH1(514)-S477D (enzyme)
chain: not shown
On to B2, for which the binding result was “binds”.
